Key:
Type in all cases: biochemical
[1] = ADH activity assays of cell extracts and purified proteins; details: cell extracts or purified protein, initial experiments
Experimental: (§1) As a routine practice, the crude extracts and purified proteins were assayed for butanol oxidation activity, in order to ensure that the recombinant proteins were active throughout the purification process. […] Alcohol oxidation activities were carried out in 50 mM sodium phosphate buffer at pH 8.8 and aldehyde reduction reactions were assayed in 190 mM potassium phosphate buffer at pH 7.0. Depending on the nature of reaction being carried out, the enzyme and cofactor stocks were diluted in the reaction buffers at the respective pHs. Either buffer or cell extract prepared from the proprietary E. coli strain (with no ADH plasmid) was used as the negative control for assays with purified protein and cell-free extracts, respectively.
(§2) In initial experiments, there were insufficient levels of protein expression with EhADH1 and RpADH8. […] It is believed that one of skill in the art could further optimize expression and assay conditions for these candidates. Sufficient amounts of active protein could be purified with all other enzymes for which data are presented. […]

[2] = Isobutanol oxidation assay; details: Table 8
Experimental: as §1
Kinetic constants of the ADH enzymes were calculated and compared to identify those candidate ADH enzymes with the most desirable properties for the conversion of isobutyraldehyde to isobutanol in the last step of the engineered pathway for isobutanol production. The assays for determining the kinetic constants were carried out using initial rates from the assays described above. […] The concentration of a given enzyme was such that it was conducive for the measurement of initial velocities over a 1-min time course. For each enzyme, Michaelis-Menten plots were generated with a broad range of substrate concentrations. Rough estimates of KM were obtained, based on which the assays were redesigned so as to use substrate concentrations in the range 0.5 to 10 times the KM value, to be able to obtain the appropriate kinetic constants. […] When calculating the KI for isobutanol, the same reactions were carried out in the presence of varying concentrations of isobutanol (generally 0-535 mM) in the reaction (see FIG. 7, for example). Reactions with isobutanol substrate were performed at 30° C. in 50 mM Sodium phosphate buffer, pH 8.8, containing 7.5 mM NAD. The Enzyme kinetics module (Version 1.3) of SigmaPlot 11 (Systat Software, Inc.) was used to fit data to Michaelis-Menten equations and calculate the kinetic constants. The kcat/KM is derived from the individual numbers of kcat and KM and not an experimentally determined value. The ratios of the KM, KI, and kcat/KM for each candidate enzyme as compared to the same parameter for SadB are given in Table 9.

[3] = Cofactor specificity in isobutyraldehyde reduction reactions; details: for COFACTOR PREFERENCE: isobutyraldehyde reduction, NADH or NADPH as cofactor
Experimental: as §1, §2

[4] = Semi-physiological time-course assay with and without 321 mM isobutanol
Description: The ideal way to characterize and compare various ADH candidates would be to calculate and compare the full set of kinetic constants, i.e., kcat values for aldehyde reduction and alcohol oxidation, KM values for isobutyraldehyde, isobutanol, NAD(P) and NAD(P)H, and KI values for isobutyraldehyde and isobutanol. A detailed characterization for numerous candidates would require considerable expenditure of time, effort and money. Thus, a qualitative assay was developed to allow for quick and efficient comparison of several candidates. A semi-physiological assay was designed to compare the performance of various enzymes. The assays entail the initiation of all reactions with a constant amount of each enzyme. […] Each reaction's time course was followed for 10 min by measuring the decrease in absorbance at 340 nm, as the reaction proceeds towards equilibrium. An enzyme with a high kcat, would drive the reaction towards equilibrium faster than an enzyme with a lower kcat. A parallel assay was also carried out under identical conditions, but with the inclusion of 321 mM isobutanol (24 g/L) in the reaction. An enzyme that is relatively uninhibited by this concentration of isobutanol would have a time course that closely mimics the time course in the absence of isobutanol.

B1: VpADH: Vanderwaltozyma polyspora DSM 70294 ADH, SEQ ID NO: 38 (protein)
chain: MSYPEKFQGIGITNREDWKHPKKVTFEPKQFNDKDVDIKIEACGVCGSDVHCAASHWGPVAEKQVVGHEIIGRVLKVGPKCTTGIKVGDRVGVGAQAWSCLECSRCKSDNESYCPKSVWTYSIPYIDGYVSQGGYASHIRLHEHFAIPIPDKLSNELAAPLLCGGITVYSPLLRNGCGPGKKVGIVGIGGIGHMGLLFAKGMGAEVYAFSRTHSKEADAKKLGADHFIATLEDKDWTTKYFDTLDLLVICASSLTDINFDELTKIMKVNTKIISISAPAADEVLTLKPFGLIGVTIGNSAIGSRREIEHLLNFVAEKDIKPWVETLPVGEAGVNEAFERMDKGDVKYRFTLVDFDKEFGN
modifications: Vanderwaltozyma polyspora DSM 70294
ADH activity [1]: no detectable activity

B2: EhADH1: Entamoeba histolytica ADH1, SEQ ID NO: 30 (protein, listed as Entamoeba histolytica)
chain: MKGLAMLGIGRIGWIEKKIPECGPLDALVRPLALAPCTSDTHTVWAGAIGDRHDMILGHEAVGQIVKVGSLVKRLKVGDKVIVPAITPDWGEEESQRGYPMHSGGMLGGWKFSNFKDGVFSEVFHVNEADANLALLPRDIKPEDAVMLSDMVTTGFHGAELANIKLGDTVCVIGIGPVGLMSVAGANHLGAGRIFAVGSRKHCCDIALEYGATDIINYKNGDIVEQILKATDGKGVDKVVIAGGDVHTFAQAVKMIKPGSDIGNVNYLGEGDNIDIPRSEWGVGMGHKHIHGGLTPGGRVRMEKLASLISTGKLDTSKLITHRFEGLEKVEDALMLMKNKPADLIKPVVRIHYDDEDTLH
ADH activity [1]: failed to detect ADH activity

B3: McADH: Mucor circinelloides ADH, SEQ ID NO: 39 (protein)
chain: MSEETFTAWACKSKSAPLEPMEMTFCHWDDDMVQMDVICCGVCGTDLHTVDEGWGPTEFPCVVGHEIIGNVTKVGKNVTRIKVGDRCGVGCQSASCGKCDFCKKGMENLCSTHAVWTFNDRYDNATKDKTYGGFAKKWRGNQDFVVHVPMDFSPEVAASFLCGGVTTYAPLKRYGVGKGSKVAVLGLGGLGHFGVQWAKAMGAEVVAFDVIPDKVDDAKKLGCDDYVLMQKEEQMEPHYNTFTHILATKIVNKCWDQYFKMLKNNGIFMLCDIPEVPLSGMSAFVMAGKQLTIAGTFIGSPSVIQECLDFAAKHNVRTWVNTFPMEKINEAFEFVRQAKPRYRAVVMN
modifications: Mucor circinelloides
conversion of isobutanol to isobutyraldehyde [2]: No measureable | Other enzymatic properties and cofactor preference ([3]; Table 8): NADH specific | COFACTOR PREFERENCE [3]: NADH

B4: BiADH: ADH of Beijerinckia indica subsp. Indica ATCC 9039, SEQ ID NO: 31 (protein, listed as Beijerickia indica)
chain: MKALVYRGPGQKLVEERQKPELKEPGDAIVKVTKTTICGTDLHILKGDVATCKPGRVLGHEGVGVIESVGSGVTAFQPGDRVLISCISSCGKCSFCRRGMFSHCTTGGWILGNEIDGTQAEYVRVPHADTSLYRIPAGADEEALVMLSDILPTGFECGVLNGKVAPGSSVAIVGAGPVGLAALLTAQFYSPAEIIMIDLDDNRLGLAKQFGATRTVNSTGGNAAAEVKALTEGLGVDTAIEAVGIPATFELCQNIVAPGGTIANVGVHGSKVDLHLESLWSHNVTITTRLVDTATTPMLLKTVQSHKLDPSRLITHRFSLDQILDAYETFGQAASTQALKVIISMEA
COFACTOR PREFERENCE [3]: NADH | kcat for the isobutyraldehyde reduction reaction (inferred from time courses, FIG. 1) ([4]; 1 ug enzyme, 1 mM isobutyraldehyde, 200 μM NADH, 10 min): likely to have the highest kcat

B5: RpADH8: Rana perezi ADH8, SEQ ID NO: 28 (protein, listed as Rama perezi)
chain: MCTAGKDITCKAAVAWEPHKPLSLETITVAPPKAHEVRIKILASGICGSDSSVLKEIIPSKFPVILGHEAVGVVESIGAGVTCVKPGDKVIPLFVPQCGSCRACKSSNSNFCEKNDMGAKTGLMADMTSRFTCRGKPIYNLVGTSTFTEYTVVADIAVAKIDPKAPLESCLIGCGFATGYGAAVNTAKVTPGSTCAVFGLGGVGFSAIVGCKAAGASRIIGVGTHKDKFPKAIELGATECLNPKDYDKPIYEVICEKTNGGVDYAVECAGRIETMMNALQSTYCGSGVTVVLGLASPNERLPLDPLLLLTGRSLKGSVFGGFKGEEVSRLVDDYMKKKINVNFLVSTKLTLDQINKAFELLSSGQGVRSIMIY
ADH activity [1]: failed to detect ADH activity

B6: ScADH6: Saccharomyces cerevisiae ADH6 alcohol dehydrogenase, SEQ ID NO: 22 (protein, listed as Saccharomyces cerevisiae)
chain: MSYPEKFEGIAIQSHEDWKNPKKTKYDPKPFYDHDIDIKIEACGVCGSDIHCAAGHWGNMKMPLVVGHEIVGKVVKLGPKSNSGLKVGQRVGVGAQVFSCLECDRCKNDNEPYCTKFVTTYSQPYEDGYVSQGGYANYVRVHEHFVVPIPENIPSHLAAPLLCGGLTVYSPLVRNGCGPGKKVGIVGLGGIGSMGTLISKAMGAETYVISRSSRKREDAMKMGADHYIATLEEGDWGEKYFDTFDLIVVCASSLTDIDFNIMPKAMKVGGRIVSISIPEQHEMLSLKPYGLKAVSISYSALGSIKELNQLLKLVSEKDIKIWVETLPVGEAGVHEAFERMEKGDVRYRFTLVGYDKEFSD
Other enzymatic properties and cofactor preference ([3]; Table 7): NADPH specific | COFACTOR PREFERENCE [3]: NADPH | inhibition by isobutanol (inferred from time courses, FIG. 1) ([4]; 321 mM isobutanol (24 g/L)): likely to be the least inhibited

B7: BtARD: Bos Taurus Aldehyde Reductase, SEQ ID NO: 27 (protein, listed as Bos taurus)
chain: MAASCILLHTGQKMPLIGLGTWKSDPGQVKAAIKYALSVGYRHIDCAAIYGNETEIGEALKENVGPGKLVPREELFVTSKLWNTKHHPEDVEPALRKTLADLQLEYLDLYLMHWPYAFERGDSPFPKNADGTIRYDSTHYKETWRALEALVAKGLVRALGLSNFNSRQIDDVLSVASVRPAVLQVECHPYLAQNELIAHCQARNLEVTAYSPLGSSDRAWRDPEEPVLLKEPVVLALAEKHGRSPAQILLRWQVQRKVSCIPKSVTPSRILENIQVFDFTFSPEEMKQLDALNKNLRFIVPMLTVDGKRVPRDAGHPLYPFNDPY
ADH activity [1]: no detectable activity

Reference: patent publication US8765433B2, “Alcohol dehydrogenases (ADH) useful for fermentive production of lower alkyl alcohols” (Butamax Advanced Biofuels LLC, priority 2009, dated 2014)
